Source: patent EP2415863A1, “Mutant glucose oxidase” (B.R.A.I.N., priority 2010, dated 2012)

Tests used:
Assay type in all cases: biochemical, Aspergillus niger
[1] = substrate: OC[C@H]1OC(O)[C@H](O)[C@@H](O)[C@@H]1O; experiment: Kinetic constants by ABTS assay, wt GOx; conditions: other: wt GOx, 2.5-100 mM glucose
From the text: (§1) For detection of GOx activity the ABTS assay was used. 2,2'-azino-bis(3-ethylbenzthiazoline-6-sulphonic acid (ABTS) is commonly used as a substrate with hydrogen peroxide for a peroxidase generating enzyme. Its use allows the reaction kinetics of peroxidases to be followed, to indirectly follow the reaction kinetics of a hydrogen peroxide-producing enzyme or to quantify the amount of hydrogen peroxide in a sample [vanGijlswijk, R.P.M., et al., Fluorochrome-labeled tyramides: Use in immunocytochemistry and fluorescence in situ hybridization. Journal of Histochemistry & Cytochemistry, 1997. 45(3): p. 375-382].
(§2) The kinetic constants were determined using the Specord 200 from (Analytik Jena, Germany) and the ABTS assay [Zhu, Z.W., et al. 2006, Making glucose oxidase fit for biofuel cell applications by directed protein evolution. Biosensors & Bioelectronics, 21(11): 2046-2051]. The measurements were performed in 1 ml of reaction volume and 1 cm light pathway cuvettes, using 2.5, 5, 10, 25, 50 and 100 mM glucose. The data were fitted using Origin 6 (OriginLab Corporation, Northampton).

[2] = substrate: OC[C@H]1OC(O)[C@H](O)[C@@H](O)[C@@H]1O; experiment: Kinetic constants by ABTS assay, parent GOx B11; conditions: other: Parent GOx (B11), 2.5-100 mM glucose
From the text: as §1, §2

[3] = substrate: OC[C@H]1OC(O)[C@H](O)[C@@H](O)[C@@H]1O; experiment: Kinetic constants by ABTS assay, GOx mutant M12; conditions: other: M12, 2.5-100 mM glucose
From the text: as §1, §2

B1: Aspergillus niger glucose oxidase (GOx), wild type, SEQ ID NO: 3 (Aspergillus niger) (protein)
chain: SNGIEASLLTDPKDVSGRTVDYIIAGGGLTGLTTAARLTENPNISVLVIESGSYESDRGPIIEDLNAYGDIFGSSVDHAYETVELATNNQTALIRSGNGLGGSTLVNGGTWTRPHKAQVDSWETVFGNEGWNWDNVAAYSLQAERARAPNAKQIAAGHYFNASCHGVNGTVHAGPRDTGDDYSPIVKALMSAVEDRGVPTKKDFGCGDPHGVSMFPNTLHEDQVRSDAAREWLLPNYQRPNLQVLTGQYVGKVLLSQNGTTPRAVGVEFGTHKGNTHNVYAKHEVLLAAGSAVSPTILEYSGIGMKSILEPLGIDTVVDLPVGLNLQDQTTATVRSRITSAGAGQGQAAWFATFNETFGDYSEKAHELLNTKLEQWAEEAVARGGFHNTTALLIQYENYRDWIVNHNVAYSELFLDTAGVASFDVWDLLPFTRGYVHILDKDPYLHHFAYDPQYFLNELDLLGQAAATQLARNISNSGAMQTYFAGETIPGDNLAYDADLSAWTEYIPYHFRPNYHGVGTCSMMPKEMGGVVDNAARVYGVQGLRVIDGSIPPTQMSSHVMTVFYAMALKISDAILEDYASMQ
notes: made in house; host or cells: Saccharomyces cerevisiae (pYES2 vector)
B1 was tested, and the Km [1] was 22.0 mM mM.

B2: Aspergillus niger glucose oxidase (GOx) parent mutant B11, T30V, I94V, SEQ ID NO: 5 (Aspergillus niger; I116V/T52V) (protein)
chain: SNGIEASLLTDPKDVSGRTVDYIIAGGGLVGLTTAARLTENPNISVLVIESGSYESDRGPIIEDLNAYGDIFGSSVDHAYETVELATNNQTALVRSGNGLGGSTLVNGGTWTRPHKAQVDSWETVFGNEGWNWDNVAAYSLQAERARAPNAKQIAAGHYFNASCHGVNGTVHAGPRDTGDDYSPIVKALMSAVEDRGVPTKKDFGCGDPHGVSMFPNTLHEDQVRSDAAREWLLPNYQRPNLQVLTGQYVGKVLLSQNGTTPRAVGVEFGTHKGNTHNVYAKHEVLLAAGSAVSPTILEYSGIGMKSILEPLGIDTVVDLPVGLNLQDQTTATVRSRITSAGAGQGQAAWFATFNETFGDYSEKAHELLNTKLEQWAEEAVARGGFHNTTALLIQYENYRDWIVNHNVAYSELFLDTAGVASFDVWDLLPFTRGYVHILDKDPYLHHFAYDPQYFLNELDLLGQAAATQLARNISNSGAMQTYFAGETIPGDNLAYDADLSAWTEYIPYHFRPNYHGVGTCSMMPKEMGGVVDNAARVYGVQGLRVIDGSIPPTQMSSHVMTVFYAMALKISDAILEDYASMQ
notes: made in house; host or cells: Saccharomyces cerevisiae (pYES2 plasmid B11 GOx)
Protein B2 has a Km [2] of 16.0 mM mM and a kcat [2] of 80.0 S-^1 S-^1.

B3: Aspergillus niger glucose oxidase (GOx) variant M12, N2Y, K13E, T30V, I94V, K152R, SEQ ID NO: 1 (Aspergillus niger; I116V/K174R/K35E/N24Y/T52V) (protein)
chain: SYGIEASLLTDPEDVSGRTVDYIIAGGGLVGLTTAARLTENPNISVLVIESGSYESDRGPIIEDLNAYGDIFGSSVDHAYETVELATNNQTALVRSGNGLGGSTLVNGGTWTRPHKAQVDSWETVFGNEGWNWDNVAAYSLQAERARAPNARQIAAGHYFNASCHGVNGTVHAGPRDTGDDYSPIVKALMSAVEDRGVPTKKDFGCGDPHGVSMFPNTLHEDQVRSDAAREWLLPNYQRPNLQVLTGQYVGKVLLSQNGTTPRAVGVEFGTHKGNTHNVYAKHEVLLAAGSAVSPTILEYSGIGMKSILEPLGIDTVVDLPVGLNLQDQTTATVRSRITSAGAGQGQAAWFATFNETFGDYSEKAHELLNTKLEQWAEEAVARGGFHNTTALLIQYENYRDWIVNHNVAYSELFLDTAGVASFDVWDLLPFTRGYVHILDKDPYLHHFAYDPQYFLNELDLLGQAAATQLARNISNSGAMQTYFAGETIPGDNLAYDADLSAWTEYIPYHFRPNYHGVGTCSMMPKEMGGVVDNAARVYGVQGLRVIDGSIPPTQMSSHVMTVFYAMALKISDAILEDYASMQ
notes: made in house; host or cells: Saccharomyces cerevisiae (pYES2)
Work on B3 yielded a Km [3] of 18.1 mM mM and a kcat [3] of 150 s-1 s-1.
